Test results taken from the Human Domainome abundance scans (Beltran et al. 2025).

B1: Gamma-crystallin C, residues 4 to 79; numbered along this chain, P07315 (parent)
chain: ITFYEDRAFQGRSYETTTDCPNLQPYFSRCNSIRVESGCWMLYERPNYQGQQYLLRRGEYPDYQQWMGLSDSIRSC

Variants of: B1
Test: abundance fitness (aPCA) (normalised: wild type 0, dead -1); higher = more abundant; growth selection in yeast, the domain comes from the species named
Settings: Homo sapiens

Abundance fitness: each site, then its substitutions
G58: M -0.223, K -0.197, Q -0.166, R -0.16, N 0.034, P -0.674, Y 0.009, S -0.039, E -0.272, T -0.102, L -0.659, D 0.251, W -0.408, V -1
L54: R -0.104, H -0.068, Q 0.096, S -0.003, E -0.004, M -0.044, T -0.234, V 0.02, D -0.149, W -0.073, C 0.085, K 0.057, I -0.135, Y -0.393, N -0.025, P -0.092, A -0.016
L55: H -1.03, F -0.246, Y -0.04, S -0.701, K -0.853, T -0.318, C -0.178, V -0.048, G -0.571, I 0.038, W -0.631, A -0.368, D -0.807, N -0.85, M -0.237, R -0.794
E59: G 0.019, V -0.053, R -0.181, N -0.155, T -0.196, A -0.07, S 0.049, Q 0.009, P 0.003, W -0.275, F -0.039, L -0.084, M -0.029, D 0.025, K 0, I -0.789
Y60: F -0.198, L -0.247
Y53: W 0.084, G -0.143, I 0.131, V -0.025, N -0.062, P -0.947, M -0.005, T -0.146, S 0.022, Q -0.094, K -0.026, R -0.019
R57: C 0.142, M 0.07, T 0.244, Y -0.269, F 0.059, P -0.009, V 0.024, L -0.059, K 0.049, G 0.051, A 0.046, S -0.039, W -0.143, I -0.053, H 0.001, Q 0.044, E 0.064
Y63: T -0.113, D -0.067, F 0.032, W -0.126, I -0.028, H -0.234, G -0.041, A -0.115, R -0.049, S -0.06, E -0.146, Q -0.12, L -0.097, M -0.12, P 0.094, N -0.088, V -0.103
Q64: E 0.024, C 0.062, G -0.045, F -0.09, H 0.155, A -0.08
R56: D -0.107, P -0.115, A -0.019, F 0.195, C 0.086, N 0.034, T 0.071, L -0.062, E 0.005, Q -0.003, V 0.039, K -0.018, S -0.611, Y 0.255, W -0.029, M 0.118
P61: L -0.064, E -0.094, G -0.041, M 0.002, H -0.205, F -0.039, K 0, D -0.034, Y -0.018, S 0.004, C -0.072, R -0.038, A -0.004, Q -0.051, T -0.142, I -0.129, V -0.083
D62: P -0.401, G -0.013, M -0.03, A -0.006, S -0.071, I -0.26, T -0.055, F 0.041, N -0.043, L -0.086, H -0.106, R -0.034, W 0.059, V -0.015, Q -0.062, Y -0.037, C -0.177
